Data published in article PMC12155224, “Rare missense variants of the leukocyte common antigen related receptor (LAR) display reduced activity in transcellular adhesion and synapse formation” (Research Square, 2025).

T1: NGL-3 ECD (extracellular domain of Netrin-G ligand 3, Fc cleaved off) (UniProt Q9NT99 36-576)
T1 construct: after cleavage LEVLFQ should remain at the C-terminus (surmised); source: ExpiCHO-S, purified (Protein A, Fc cleaved off with 3C protease, SEC); not shown: Fc, C-terminal, cleaved
T1 sequence (looked up): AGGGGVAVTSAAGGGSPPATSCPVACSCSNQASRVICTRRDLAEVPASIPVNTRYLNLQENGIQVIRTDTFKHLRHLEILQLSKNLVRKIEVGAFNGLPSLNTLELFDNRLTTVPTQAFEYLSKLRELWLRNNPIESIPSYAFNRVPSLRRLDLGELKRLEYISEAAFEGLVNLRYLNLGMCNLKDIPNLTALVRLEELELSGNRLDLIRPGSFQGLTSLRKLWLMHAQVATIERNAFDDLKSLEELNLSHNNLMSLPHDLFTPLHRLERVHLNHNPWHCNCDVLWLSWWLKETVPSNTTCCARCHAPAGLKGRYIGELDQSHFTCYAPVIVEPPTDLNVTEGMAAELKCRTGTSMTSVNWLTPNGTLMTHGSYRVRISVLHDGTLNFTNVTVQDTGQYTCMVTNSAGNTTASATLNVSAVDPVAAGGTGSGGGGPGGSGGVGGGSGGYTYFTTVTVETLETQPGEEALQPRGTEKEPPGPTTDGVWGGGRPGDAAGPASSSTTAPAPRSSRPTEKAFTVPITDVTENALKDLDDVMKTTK

B1: LAR FN1–4 WT (recombinant fibronectin III domains 1–4 of human LAR) (domain or fragment)
chain: PKPPIDLVVTETTATSVTLTWDSGNSEPVTYYGIQYRAAGTEGPFQEVDGVATTRYSIGGLSPFSEYAFRVLAVNSIGRGPPSEAVRARTGEQAPSSPPRRVQARMLSASTMLVQWEPPEEPNGLVRGYRVYYTPDSRRPPNAWHKHNTDAGLLTTVGSLLPGITYSLRVLAFTAVGDGPPSPTIQVKTQQGVPAQPADFQAEVESDTRIQLSWLLPPQERIIMYELVYWAAEDEDQQHKVTFDPTSSYTLEDLKPDTLYRFQLAARSDMGVGVFTPTIEARTAQSTPSAPPQKVMCVSMGSTTVRVSWVPPPADSRNGVITQYSVAYEAVDGEDRGRHVVDGISREHSSWDLVGLEKWTEYRVWVRAHTDVGPGPESSPVLVRTDED
modifications: RED-tris-NTA 2nd generation dye on the His tag
notes: leukocyte common antigen related receptor (LAR, PTPRF), human, FN1–4 domains; TEV cleavage site between the His tag and the domains; also called WT LAR FN1–4; LAR FN1–4 domain; source: E. coli BL21(DE3), purified (HisTrap HP or Talon beads, SEC); not shown: His6, N-terminal, kept

Key:
[1] = target: LAR P417L, full length (human) (UniProt P10586)
[2] = target: LAR V389M, full length (human) (UniProt P10586)
[3] = target: LAR P381L, full length (human) (UniProt P10586)
[4] = target: T1, NGL-3 ECD (extracellular domain of …); assay: MST; His-tagged LAR FN1–4 labelled with RED-tris-NTA, 100 nM; NGL-3 in 1:1 dilution series; 25 mM HEPES pH 7.5, 150 mM NaCl, 0.005 % Tween20; 1 h at RT; Monolith NT.115, medium MST power; MST on time 2.5 s; 1:1 KD model; settings: both partners purified

| Molecule | cell aggregation index: HEK293T cells with LAR variant + mCherry mixed with HEK293T cells with NGL-3 (NGL-3-CFP, whole on cells, not the Fc fusion) + GFP; decrease against WT LAR [1] [% decrease] | cell aggregation index: HEK293T cells with LAR variant + mCherry mixed with HEK293T cells with NGL-3 (NGL-3-CFP, whole on cells, not the Fc fusion) + GFP; decrease against WT LAR [2] [% decrease] | cell aggregation index: HEK293T cells with LAR variant + mCherry mixed with HEK293T cells with NGL-3 (NGL-3-CFP, whole on cells, not the Fc fusion) + GFP; decrease against WT LAR [3] [% decrease] | Kd [4] [µM] |
| --- | --- | --- | --- | --- |
| NGL-3-Fc (soluble fusion of the NGL-3 extracellular domain with Fc) (from UniProt Q9NT99 36-576) | > 50 | > 50 | > 50 |  |
| B1 |  |  |  | 3.68 |
